Experimental data taken from doi:10.1101/2024.12.07.627365 (bioRxiv, 2024).

Target: T1, Extended FH2 FMN1 (UniProt Q05860 961-1466)
T1 sequence (looked up): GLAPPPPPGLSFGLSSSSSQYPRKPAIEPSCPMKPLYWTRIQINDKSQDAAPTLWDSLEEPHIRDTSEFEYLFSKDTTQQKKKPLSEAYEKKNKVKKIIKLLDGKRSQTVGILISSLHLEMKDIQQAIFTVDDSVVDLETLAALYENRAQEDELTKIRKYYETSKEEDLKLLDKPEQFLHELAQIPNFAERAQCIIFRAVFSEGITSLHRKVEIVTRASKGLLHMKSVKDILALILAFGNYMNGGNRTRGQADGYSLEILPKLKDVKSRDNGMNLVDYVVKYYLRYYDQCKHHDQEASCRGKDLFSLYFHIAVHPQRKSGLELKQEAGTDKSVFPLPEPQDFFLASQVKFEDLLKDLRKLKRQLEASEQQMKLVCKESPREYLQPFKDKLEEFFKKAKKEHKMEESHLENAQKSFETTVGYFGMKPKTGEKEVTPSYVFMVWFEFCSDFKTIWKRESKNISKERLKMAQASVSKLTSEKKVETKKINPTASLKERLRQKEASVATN
Test: SPR

Kd: 36.5 nM
koff: 0.000803 s⁻¹
kon: 22500 M⁻¹ s⁻¹
B1: N-terminal WW1-WW2 FNBP4 (domain or fragment, UniProt Q8N3X1 214-629, looked up)
chain: GIEMGDWQEVWDENTGCYYYWNTQTNEVTWELPQYLATQVQGLQHYQPSSVPGAETSFVVNTDIYSKEKTISVSSSKSGPVIAKREVKKEVNEGIQALSNSEEEKKGVAASLLAPLLPEGIKEEEERWRRKVICKEEPVSEVKETSTTVEEATTIVKPQEIMLDNIEDPSQEDLCSVVQSGESEEEEEQDTLELELVLERKKAELRALEEGDGSVSGSSPRSDISQPASQDGMRRLMSKRGKWKMFVRATSPESTSRSSSKTGRDTPENGETAIGAENSEKIDENSDKEMEVEESPEKIKVQTTPKVEEEQDLKFQIGELANTLTSKFEFLGINRQSISNFHVLLLQTETRIADWREGALNGNYLKRKLQDAAEQLKQYEINATPKGWSCHWDRDHRRYFYVNEQSGESQWEFPDG
